Experimental data from patent US20230201308A1, “TREATMENT OF CORONAVIRUS INFECTION WITH […]” (Eiger Biopharmaceuticals, Inc., priority 2020, published 2023).
Where two headings read alike, the source gives them in different places.

Assays:
SARS-CoV-2 = assay: Third trial (TOGETHER): virological assessment, quantitative real-time PCR of mid-turbinate swabs; type: in vivo, human; conditions: for proportion of participants with a negative swab for SARS-CoV-2 RNA: Canadian cohort
[1] = for Aes: outside of the directed symptom categories
Description: Detailed directed and open-ended symptoms were assessed serially. Because of overlap between symptoms of COVID-19 and potential peginterferon-lambda Aes, symptoms were recorded and Aes were considered any symptom outside of the directed symptom assessment. Laboratory AE severity was graded using the Common Terminology Criteria for Adverse Events (CTCAE) Version 5.0.

[2] = Baseline Viral Load <10E6 copies/mL
[3] = Baseline Viral Load ≥10E6 copies/mL
[4] = n=30, listed as Peginterferon Lambda
[5] = n=30, listed as peginterferon-lambda

B1: pegylated interferon lambda-1a (protein)
chain: MKPTTTGKGCHIGRFKSLSPQELASFKKARDALEESLKLKNWSCSSPVFPGNWDLRLLQVRERPVALEAELALTLKVLEAAAGPALEDVLDQPLHTLHHILSQLQACIQPQPTAGPRPRGRLHHWLHRLQEAPKKESAGCLEASVTFNLFRLLTRDLKYVADGNLSLRTSTHPEST
modifications: PEG
notes: 180 mcg subcutaneous injection
In the case of B1, the “patients below the limit of quantitation” value (SARS-CoV-2; Day 7, high baseline viral load) is reported as 50.5%, the “treatment effect on viral load (Beta)” value (SARS-CoV-2; Day 7, high baseline viral load (≥192,841,278 copies/mL)) is reported as −1.01 and the “median viral load decline from baseline” value (SARS-CoV-2; Day 7, hospitalized patients) is reported as 7.19 log copies/mL. The “proportion of participants with a negative swab for SARS-CoV-2 RNA” value (from here on “proportion of participants”) (SARS-CoV-2; Day 7 post injection) was 86, the “proportion of participants” value (SARS-CoV-2; Day 8 post injection) was 92 and the “proportion of participants” value (SARS-CoV-2; Day 9 post injection) was 85. The “proportion of participants” value (SARS-CoV-2; Day 10 post injection) was 92, the “proportion of participants” value (SARS-CoV-2; Day 11 post injection) was 100 and the “proportion of participants” value (SARS-CoV-2; Day 12 post injection) was 100. For the same molecule, the “proportion of participants” value (SARS-CoV-2; Day 13 post injection) was 100, the “proportion of participants” value (SARS-CoV-2; Day 14 post injection) was 100 and the “median log decline in viral load” value (SARS-CoV-2; by Day 7, high baseline viral load) was 8.29. The “viral loads by Day 7” value (SARS-CoV-2; final analysis) was “significantly lowered”, the “treatment effect on viral load (Beta)” value (SARS-CoV-2; low baseline viral load group) was 0.22 and the deaths ([1]; 14 days) was “No deaths”. The “OR symptom progression vs Placebo, All Symptoms” value ([1]; All samples) was 3.15, the “OR symptom progression vs Placebo, Fever Syndrome” value ([1]; All samples) was 1.69 and the “OR symptom progression vs Placebo, Gastrointestinal” value ([1]; All samples) was 0.48. The “OR symptom progression vs Placebo, Mood” value ([1]; All samples) was 0.90, the “OR symptom progression vs Placebo, Musculoskeletal” value ([1]; All samples) was 1.80 and the “OR symptom progression vs Placebo, Neurologic” value ([1]; All samples) was 5.07. The “OR symptom progression vs Placebo, Respiratory” value ([1]; All samples) was 4.67, the “OR symptom progression vs Placebo, Skin” value ([1]; All samples) was 0.76 and the “OR symptom progression vs Placebo, All Symptoms” value [1, 2] was 1.63. The “OR symptom progression vs Placebo, Fever Syndrome” value [1, 2] was 4.83, the “OR symptom progression vs Placebo, Gastrointestinal” value [1, 2] was 0.40 and the “OR symptom progression vs Placebo, Mood” value [1, 2] was 0.32. The “OR symptom progression vs Placebo, Musculoskeletal” value [1, 2] was 2.55, the “OR symptom progression vs Placebo, Neurologic” value [1, 2] was 1.60 and the “OR symptom progression vs Placebo, Respiratory” value [1, 2] was 3.67. For the same molecule, the “OR symptom progression vs Placebo, Skin” value [1, 2] was 0.51, the “OR symptom progression vs Placebo, All Symptoms” value [1, 3] was 2.39 and the “OR symptom progression vs Placebo, Fever Syndrome” value [1, 3] was 1.24. For the same molecule, the “OR symptom progression vs Placebo, Gastrointestinal” value [1, 3] was 0.58, the “OR symptom progression vs Placebo, Mood” value [1, 3] was 1.29 and the “OR symptom progression vs Placebo, Musculoskeletal” value [1, 3] was 1.19. For the same molecule, the “OR symptom progression vs Placebo, Neurologic” value [1, 3] was 2.61, the “OR symptom progression vs Placebo, Respiratory” value [1, 3] was 5.88 and the “OR symptom progression vs Placebo, Skin” value [1, 3] was 1.90. For the same molecule, the “Emergency Room visits” value ([1]; n=30) was 1, the Hospital admissions ([1]; n=30) was 1 and the “Lab Abnormalities (grade 3 or 4), Alanine aminotransferase (ALT)” value ([1]; n=30) was 1. The “Lab Abnormalities (grade 3 or 4), Aspartate aminotransferase (AST)” value ([1]; n=30) was 1, the “Lab Abnormalities (grade 3 or 4), Creatinine” value ([1]; n=30) was 0 and the “Lab Abnormalities (grade 3 or 4), Hemoglobin” value ([1]; n=30) was 0. For the same molecule, the “Lab Abnormalities (grade 3 or 4), Lymphocytes” value ([1]; n=30) was 0, the “Lab Abnormalities (grade 3 or 4), Neutrophils” value ([1]; n=30) was 0 and the “Lab Abnormalities (grade 3 or 4), Platelets” value ([1]; n=30) was 0. For the same molecule, the “Lab Abnormalities (grade 3 or 4), Total bilirubin” value ([1]; n=30) was 0, the “Lab Abnormalities (grade 3 or 4), White Blood Cells” value ([1]; n=30) was 0 and the “Treatment-Related Aes” value ([1]; n=30) was 0. For the same molecule, the “Treatment-Related SAEs” value ([1]; n=30) was 0, the “Severe Symptoms, number of patients” value ([1]; n=30, 14 days) was 7 and the “Severe Symptoms, reports” value ([1]; n=30, 14 days) was 20. The SAEs [1, 4] was 1, the SAEs [1, 5] was “One” and the Aes [1, 4] was 2. The Aes [1, 5] was “two”, the “aminotransferase elevations compared to placebo” value ([1]; single 180 mcg s.c.) was “higher rate of transient aminotransferase elevations” and the tolerability ([1]; single 180 mcg s.c.) was “well-tolerated with few adverse events”.
